Experimental data taken from the nanobody polyreactivity screen of Harvey et al. (2022).

Assay: yeast display, Sf9 membrane polyspecificity reagent, FACS + sequencing; frameworks hold sequencing errors
Outline: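 Galactose-induced (36–48 hours) yeast carrying a synthetic nanobody display library were exposed to 10% biotinylated, detergent-solubilized Sf9 membrane reagent at 4 °C for 1 hour. FACS followed streptavidin microbead enrichment, using low and high (top ~1%) gates for expression (anti-HA) and reagent binding (streptavidin). Colony PCR, MiSeq 2 × 250 sequencing and CDR-length filtering followed. Labels for polyreactivity reflect the gate of origin.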

Row | Sequence | polyreactivity (PSR sort gate)
1 | QVQLVESGGGLVQAGGSLRLSCAASGNIFANYAMGWYRQAPGKERELVAAIRWSASRPYYADSVKGRFTISRDNAKNTVYLQMNSLKPEDTAVYYCAATIYTFWDYYYDYWGQGTQVTVSS | high polyreactivity
2 | QVQLVESGGGLVQAGGSLRLSCAASGRIFVVNAMGWYRQAPGKERELVATITRSGGITYYADSVKGRFTISRDNAKNTVYLQMNSLKPEDTAVYYCNADVLFYTYYTRGRFDFDYWGQGTQVTVAS | low polyreactivity
3 | QVQLVESGGGLVQAGGSLRLSCAASGSIFSYYVMGWYRQAPGTERELVAAISYSGGRTYYADSVKGRFTISRDNAKNTVYLQMNSLKPEDTAVYYCAASRRVGEVSYYYWGQGTQVTVSS | high polyreactivity
4 | QVQLVESGGGLVQAGGSLRLSCAASARTFYYYAMGWYRQAPGKERELVAAISWSGGRTYYADSVKGRFTISRDNAKNTVYLQMNSLKPEDTAVYYFAVPYPAEGYGGDYWGQGTQVTVSS | low polyreactivity
5 | QVQLVESGGGLVQAGGSLRLSCAASGSIFPDYAMGWYRPAPGKERELVAAIDTSTTDTYYADSVKGRFTISRDNAKNTVYLQMKSQKPEDTAVYYSAADAYDDPYGFWGQGTQVTVSS | high polyreactivity
6 | QVQLVESGGGLVQAGRSLRLSCAASGSTFYAYTMGWYRKAPGKERELVAGISRRGGTTYYADSVKGRFTISRDNAKNTVYLQMNSLKPEDTAVYHCATRSWELGDYWGQGTQVTVSS | low polyreactivity
7 | QVQLVESGGGVVQAGGSLRLSCAASGRTFKPYAMGWYRQAPGKERELVAAISSGVSTHYADSVKGRFTISRDNAKNTVYLQMNSLKPEDTAVYYCAADYWVNYWFDYWGQGTQVTVSS | low polyreactivity
8 | QVQLVESVGGLVQAGGSLRLSCAASGFTFRVNAMGWYIQAPGKERELVAAISSGGSTNYADTVKGRFTISRDNAKNTVYLQMNSLKPEDTAVYYCAKRFKYIYYWGQGTQVTVSS | high polyreactivity
9 | QVQLVESGGGLVQAGGRLRLSCAASGTTAENVMGWYRQAPGKERELVAAISSRGGSTYYADSVKGRFTISRDNAKNTVYLQKNSLKPEDTAVYYCAAEYVSHFSGYRYDYWGQGTHVTVSS | low polyreactivity
10 | QVQLVESGGGLVQAGGSLRLSCAASGRIFQYNVMGWYRQAPGKERELVAAISSGGNTYYADSVKGRFTISRDNAKNTVNLPMNSLKPEDTAVYYCAADHYVPWPNYDYDYWGQGTQVTVSS | low polyreactivity
11 | QVQLVESGGGLVQAGGSLRLSCAASGRIFRYNALGWYRQAPGKERELVAAITWNGASTFYADSVKGRFTISRDNAKNTVYLQMNSLKPEDTAVYYCATVRDISGYLYWSYNLYDYWGQGTQVTVSS | high polyreactivity
12 | QVQLVESGGGLVQAGGSLRLSCAASGRIFRVNAMGWYRQAPGKERELVAAISRRGGRTYYADSVKGRFTISRDNAKNTVYLQMNSMKPEDTAVYYCNADSVTSAGSLGRAEYGYWVQGTQVTVSS | high polyreactivity
13 | QVQLVESGGGLVQAGGSLRLSCAASGSTFGGNAMGWYRQAPGKERELVAVISKRGGSTYYADSVKGRFTISRDNAKNTVYLQMNSLKAEDTAVYYCAATYSRYWSPTYDYWGEGTQVTVSS | high polyreactivity
14 | QVQLVESGGGLVQAGGSLRLSCAASGRILSANAMGWYRQAPGTERELVAAITYSGDNTYYADSVKGRFTISRDNAKNTVYLQMNSLKPEDTAVYYCAREFQVDGGEEDYWGQGSQVTVSS | low polyreactivity
15 | QGQHVESGGGLVQAGGSLRLSCAASGTFVYAMGWYRQAPGKERELVAAISYSGGSTYYADSVKGRFTISRDNAKNTVYLQMNSLKPEDTAVFYCNVLGWYYTTTKYDYWGQGTQVTVSS | high polyreactivity
16 | QVQLVESGGGLVQAGGSLRLSCAASGRTFVCNAMGWYRQAPGKERELVAAISSSGTATYYADSVKGRFTISRDNAKNTVYLQMNSLKPEDTAVYYCAKDLLYQPTIRDYWGQGTQVTVSS | low polyreactivity
17 | QVQLVESGGGLVQAGGSLRLSCAASGRTIGVYAMGWYRQAPGKERELVAAISWSGGTTYYADSVKGRFTISRDNAKNTVYLQMNSLKPEDTAVYYCAADSYTEVEYWGQGTQVTVSS | low polyreactivity
18 | QVQHVESGGRLVQAGGSLRLSCAASGSIFAAYAMGWYRQAPGKERELVAAISRSGASTYYADSVKGRFTISRDNAKNTVYLQMNSLKPVDTAVYYCAADTYAYPHDNYDYWGQGTQVTVSS | low polyreactivity
19 | QVKLVESGGGLVQAGGSLRLSCGASGSIFRWYALGWYRQAPGKERELVAAIDYSGGSTYYADSVKGRFTISRDNAKNTVYLQMNSLKPEDTAVYYCAATAFYGGFLRYDYWGQGTQVTVSS | low polyreactivity
20 | QVQLVESGVCLVQAGGSLRLSCAASGFTYYFYTMGWYRQAPGKERELVARITARGGSTYYADSVKGRFTISRDNAKNTVYLQMNSLKPEDTAVYYCAAVTYFGWYPYRMEYWGQGTQVTVSS | high polyreactivity
21 | QVQLVESGGGLVQAGGSLRLSCAASGSTFYVNDMGWYRQAPGKERELVATISSGSSTYYADSVKGRFTISRDNAKNTVYLQMNSLKPEDTAVYYCAADGVAEEGFDARYDYWGQGTQVTVSS | low polyreactivity
22 | QVQLVESGGGLVQAGGSLRLSCAASGSIFYYNAMGWYRQAPGKERELVAAITSSGGSTYADSVKGRFSISRDNAKNTVYLQMKSLKPEDTAVYYCNADGGYSYESTDHYGYEYWGQGTQVTVSS | low polyreactivity

Row | Sequence | polyreactivity (PSR sort gate)
23 | QVQLVESGGGSVQAGGSLRLSCAASGYIFGVYAMGWYRQAPGKERELVAAISSGGSTNYADSVKGRFTISRDNAKNTVYLQMNSLKPEDTAVYYCNADYIFYYEYDYWGQGTQVTVSS | low polyreactivity
24 | QVQLVESGGGLVQAGGSLRLSCAASGSTFRRNAMGWYRQAPGKERELVAAISRSGGSTYYADSEKGRFTISRDNAKNTVYLQMNSLKPEDTVVYYCAADAARTSHWSGDYWGQGTQVTVSS | high polyreactivity
25 | QVQLVESGGGLVQAGGSLRLSCAASGFSSVRNDMGWYRQAPGKERELVAAISSGDTKDYADSVKGRFTISRDNAKNTVYLQMNSLNPEDTSVYYCAAVYYGRYYYWGQGTQVTVSS | low polyreactivity
26 | QVQLVESGGRLVQAGGSLRLICAASGFIFWYYAMGWYRQAPGKERELVADISSGGSTNYADSVKGRFTISRDNAKNTVYLQMNSLKPEDTAVYYCAADTFRRDDYWGQGTQVTVSS | low polyreactivity
27 | HVQLVESGGGLVQAGGSLRLSCAASGIIFWTYTMGWYRQAPGKERELVGAISSGGSTKYADSVKGRFTISRDNAKNTVYLQMNSLKPADTAVYYCNAEFAPWGSAYGHDQYDYWGQGTQVTVSS | low polyreactivity
28 | QVQLVESGGGLVQAGGSRRLSCAASGSTFRYNTMGWYRQAPGKERDLVAAITGGGGSTYYADSVKGRFTISRDNAKNTVYLQMNSLKPEDTAVYYCAKRHWYDCYVSSYTTRYDYWGQGTQVTVSS | low polyreactivity
29 | QVQLVESGGGLVQAGGSLRLSCAASGRIFSVYAMGWYRQAPGKEREFVAAITKGGVGTYYADSVKGRFTISRDNAKNTVYLQMNSLKPEDTAVYYGAARHYYGADRYYSWGQGTQVTVSS | high polyreactivity
30 | QVQLVESGGGLVQAGGSLRLSCAASGRIFRVYALGWSRQAPGKERELVAAITSGGSTYYADSVKGRFTISRDNAKNTVYLQMNSLKPEDSAVYYCAAKRFRYRPGDYWGQGTQVTVSS | high polyreactivity
31 | QVQLVESGGGLVQAGGSLRLSCAASGFIFYDYDMGWYRQAPGKERELVAAITYSGGSTYYADSVKGRFTISRDNAKNSVYLQMNSLKPEDTAVYYCAAVKSRYAEAVDYYYWGQGTQVNVSS | low polyreactivity
32 | QVQLVESGGGLVQAGGSLRLSCAASGFTFVRYAMGWDSQAPGTERELVAAMSRSGGSTYYADSVKGRFTISRDNAKNTVYLQMNSLKPEDTAVYYCAADIKGRTGDAYDYWGQGTQVTVSS | low polyreactivity
33 | QVQLVETGGGLVQAGGSLRLSCAASGIIIPWYTMGWYRQAPGKERELVAAISSGGRTNYADSVKGRFTISRDNAKNTVYLQMNSLIPEDTAVYYCAANYYRDRDWGQGTQVTVSS | high polyreactivity
34 | QVQLVESGGGLVQAGGSLRLSCAASGSTFTRNAMGWYRQAPGKERELVARISRSGGSTYYADSVKGRFTISRDNAKNSVYLQMNSLKPEDTAVYDCNKDWYPRYPYVKGERDYWGEGTQVTVSS | high polyreactivity
35 | QVQLVESGGGLVQAGGSLRLSCAASGLTFPYYAMGWYRQAPGKERELVATISWSSISTYYADSVKGRFTISRDNAKNTVYLQMNSLKPEDTAVYYCNARYSLRRGYDYWGQGTQVTVSS | low polyreactivity
36 | QVQLVESGGGLVHAGGSLRLSCAASGSIFGRYVMGWYRQAPGKERELVAAITRSGGSTYYADSVKGRFTISRDNAKNTVYLQMNSLKPEDTAVYYCNADVNFIDDDYWGHGTQVTVSS | low polyreactivity
37 | QVQLVESGGGLVQAGGSLRLSCAASGRIFHPNVMGWYRQAPGKERELVAAISSGGSTYYADSVKGRFTISRDNAKNTVYLQMNSLKPEDTAVYYCATRIRSGSYPYPRYDYWGQGTQVTVSS | high polyreactivity
38 | QVQLVESGGGLVQAGGSLRLISAASGRTFYSYAMGWYRQATGKERELVASISSGGGTNYADSVKGRFTSSRDNAMNTVYLQMNSLKPEDTAVYYGAAKYWFFYPYDYWGQGTQVTVSS | low polyreactivity
39 | QVQLVESGGGLVQAGGSLRLSCAASGRIFTSNAMGWYRQAPGKERELVAAINRSGGRTYYADSVKGRFTISRDNAKNTVYLQMNSLKPEDTAVYYCNKVPYVFGFAASDYWGQGTQVTVSS | high polyreactivity
40 | QVQLVESGGGLVQAGGSLRLSCAASGSTFVRYAMGWYRQAPGKERELVAAISKSGGSTYYADSVKGRFTISRDNAKNTVYLQMNSLKPEDTAVYYCNADVYKNSKFRIMGYWGQGTQVTVSS | high polyreactivity
41 | QVHLVESGGGLVQAGGSLRLSCAASGSTFDDNTMGWYRQAPGKERELVAAISSDSSTNYADSVKGRFTISRDNAKNTVYLQMNSLKPEDTAVYSCATRSRTTKIVRWPGMYYWGQGTQVTVSS | high polyreactivity
42 | QVQLVESGGGLVQAGGSLRLSCAASGSTSYVYATGGYRQAPGKERELVAAISGSGGRTYYADSVKGRFTISRDNAKNTVYLQMNSLKPEDTAVYYCNALPRPSYPFDYWGQGTQVTVSS | high polyreactivity
43 | QVQLVESGVGLVQAGGSLRLSCAASGRTSAQYGMGWYRQAPGKERELVATITTSGGRTYYADSVKGRFTISRDTAKNTVYLQMNSLKPEDTAVYYGAAEGWTTPTPTSDDNQWWYDYWGQGTQVTVSS | high polyreactivity
